The target of assay [1] is T1, hBCMA ECD hFc (ACRO, BC7-H5254) (human, UniProt Q02223 1-54).
T1 construct: extracellular domain; Bought reagent (ACRO BC7-H5254); also called R0341; not shown: human Fc
T1 sequence (looked up): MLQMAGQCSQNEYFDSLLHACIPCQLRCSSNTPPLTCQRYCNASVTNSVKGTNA
Description: ELISA; hBCMA ECD hFc coated at 2 µg/ml, antibody in 3-fold dilutions. An excerpt:
R0317 is a C11D5.3BCMA mouse monoclonal antibody, and its specific sequence and information may be found publicly.

Assay [2] has as its target T2, human BCMA (full-length, on cells) (human, UniProt Q02223 1-184).
T2 construct: whole, on cells; also called K562-BCMA; CHO-BCMA
T2 sequence (looked up): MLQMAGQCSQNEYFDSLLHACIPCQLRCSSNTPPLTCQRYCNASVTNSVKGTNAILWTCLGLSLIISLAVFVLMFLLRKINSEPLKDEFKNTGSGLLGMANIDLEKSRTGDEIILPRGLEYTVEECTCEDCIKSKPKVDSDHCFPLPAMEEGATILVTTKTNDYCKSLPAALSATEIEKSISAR
In words: flow cytometry on K562, H929, RPMI8226 and K562-BCMA cells; PE goat anti-mouse IgG1. The text has this:
The specificity of BCMA antibody of the present disclosure is detected by FACs. A human BCMA full-length gene is synthesized in vitro, and a restriction enzyme cutting site is introduced, the synthesized human BCMA full-length gene is inserted into a lentiviral packaging plasmid vector (PCDHF) by double enzyme digestion, and lentiviral packaging (the specific operation steps are generally 4 plasmid lentiviral packaging steps, please refer to a section about lentiviral packaging on an official website of Jikai Gene in detail) is performed. The prepared lentivirus is infected with a K562 cell (ATCC, article number: CCL-243) to construct a K562-BCMA cell, and the cells are single-clone-picked and identified, to obtain a stable cell line K562-BCMA stably expressing BCMA. The 5E2 and 5F4 antibodies are respectively incubated with K562, H929, RPMI8226 and K562-BCMA cells for 30 min at 4° C., after that, it is washed twice with PBS, then a secondary antibody PE goat anti-mouse IgG1 (Biolegend, B288920) is added, and incubated at 4° C. for 30 min, after that, it is washed twice with PBS. Then, the detection is performed by using a Beckman Coulter flow cytometry. Detection results are shown in FIG. 5 below, and 5E2 and 5F4 may specifically bind to the cells of which the BCMA expression is positive.

In assay [3] the target is T3, hu (human) BCMA ECD His (ACRO, BCA-H522y) (human, UniProt Q02223 1-54).
T3 construct: extracellular domain; Bought reagent (ACRO BCA-H522y); also called hu BCMA ECD His; not shown: His tag
T3 sequence (looked up): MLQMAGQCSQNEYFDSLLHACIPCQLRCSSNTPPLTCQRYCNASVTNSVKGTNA
In words: ELISA; hu BCMA ECD His coated at 2 µg/mL, antibody in 3-fold dilutions.

Assay [4] has as its target T3, hu (human) BCMA ECD His (ACRO, …). Description: ELISA; hu BCMA ECD His coated at 2 µg/mL, antibody from 20 µg/mL in 3-fold dilutions. The text has this: Herein, mVH-mVL is a murine BCMA antibody, and is a murine antibody before humanization.
Assay [5] has as its target T2, human BCMA (full-length, on cells). Description: flow cytometry on K562-BCMA and CHO-BCMA cells; antibody from 30 µg/ml in 3-fold dilutions, APC anti-human IgG Fc. An excerpt: A K562 cell (ATCC® CCL-243™) is a human chronic myeloid leukemia cell, and a CHO cell (ATCC® CRL-12023™) is a Chinese hamster ovary cell. The K562 cells and the CHO cells are respectively infected with lentiviruses containing a full-length sequence of human BCMA, and after being infected, a monoclone is picked, to obtain a K562-BCMA cell line and a CHO-BCMA cell line stably expressing BCMA, and the affinity (EC50) of the four humanized antibodies to K562-BCMA and CHO-BCMA is detected respectively. A specific detection method is as follows: cells are harvested, washed once with PBS, and resuspended with PBS according to 2E+5 cells/200 μL. The four BCMA humanized antibodies are diluted in a 3-fold gradient with 1% BSA, the concentration of the former gradient antibody is 3 times greater than that of the latter gradient antibody, (the initial concentration of the antibody is 30 μg/ml, and there is a total of 11 gradients), and then it is respectively incubated with the cells at 4° C. for 30 min. After that, it is incubated with APC anti-human IgG Fc Antibody (Biolegend, 409306) for 30 min at 4° C., washed twice with 1x PBS, and detected by a Beckman Coulter (model number: CytoFLEX) flow cytometry. […] The affinity EC₅₀ of hu VH1VL2 to K562-BCMA is slightly weaker. However, the affinity EC₅₀ of hu VH1-VL2 and CHO-BCMA is at the same level as the other three humanized antibodies, and the expression abundance of the four humanized antibodies and the murine BCMA antibody binding to CHO-BCMA is in the order of m VH-m VL, hu VH1-VL1, hu VH2-VL1, hu VH1-VL2, and hu VH1-VL3 from high to low.

For assay [6] the target is unchanged. In words: flow cytometry on RPMI8226 and H929 myeloma cells; antibody from 10 µg/ml in 3-fold dilutions, PE anti-mouse IgG. How it is done: A RPMI8226 cell (ATCC® CRM-CCL-155™) is a human multiple myeloma peripheral blood B lymphocyte, and a H929 cell (ATCC® CRL-9068™) is a human multiple myeloma bone marrow B lymphocyte. A specific detection method is as follows: cells are harvested, washed with PBS once, and then resuspend with PBS according to 2E+5 cells/200 μl. The three antibodies are diluted in a gradient (the initial concentration of the antibody is 10 μg/ml, it is diluted with 1% BSA in 3-fold, and there is a total of 9 gradients), and then incubated with the cells for 30 min at 4° C. After that, it is incubated with a PE-labeled anti-mouse IgG secondary antibody (Biolegend, B288920), washed twice, and detected by a Beckman Coulter (model number: CytoFLEX) flow cytometry.

B1: 5E2 (antibody, V domains shown)
VH: EVQLQQSGPELIKPGASVKMSCKASGYTFTSYVVHWVKQKPGQGLEWIGYIIPYNDDTKYNEKFKGKATLTSDKSSSTAYMELSSLTSEDSAVYYCARWDYDDGYFDYWGQGTTLTVSS
VL: DVVMTQTPLSLPVTLGDQASISCRSSQSLLHSNGNTYLHWYLQKPGQSPKLLIYKVSNRFSGVPDRFSGSGSGTDFTLKISRVEAEDLGVYFCSQITHIPFTFGSGTKLEIKR
notes: Mouse hybridoma antibody; It was amplified with primers for mouse IgG1 and detected with anti-mouse IgG in Embodiment 2; In Embodiment 5 it is called mVH-mVL ('a murine antibody before humanization'); also called BCMA antibody 5E2; mVH-mVL
In the case of B1, the binding result in assay [1], in assay [2] and in assay [3] was “binds” in each case.

B2: hu VH1-VL1 (antibody, V domains shown)
VH: QVQLVQSGAEVKKPGASVKMSCKASGYTFTSYVVHWVRQAPGQGLEWIGYIIPYNDDTKYNEKFKGKATLTSDKSSSTAYMELSSLRSEDTAVYYCARWDYDDGYFDYWGQGTTVTVSS
VL: DVVMTQSPLSLPVTLGQPASISCRSSQSLLHSNGNTYLHWYLQKPGQSPQLLIYKVSNRFSGVPDRFSGSGSGTDFTLKISRVEAEDVGVYFCSQITHIPFTFGQGTKLEIK
notes: Humanized 5E2; also called humanized BCMA antibody hu VH1-VL1
Turning to B2, the binding result in assay [4] and in assay [5] was “binds” throughout.

B3: hu VH1-VL3 (antibody, V domains shown)
VH: QVQLVQSGAEVKKPGASVKMSCKASGYTFTSYVVHWVRQAPGQGLEWIGYIIPYNDDTKYNEKFKGKATLTSDKSSSTAYMELSSLRSEDTAVYYCARWDYDDGYFDYWGQGTTVTVSS
VL: DIVMTQTPLSLSVTPGQPASISCKSSQSLLHSNGNTYLHWYLQKPGQPPQLLIYKVSNRFSGVPDRFSGSGSGTDFTLKISRVEAEDVGVYYCSQITHIPFTFGQGTKLEIKR
notes: Humanized 5E2; also called humanized BCMA antibody hu VH1-VL3
Consider B3, for which the binding result in assay [4] and in assay [5] was “binds” in each case.

B4: hu VH2-VL1 (antibody, V domains shown)
VH: QVQLVQSGAEVKKPGASVKMSCKASGYTFTSYVVHWVRQAPGQGLEWIGYIIPYNDDTKYNEKFKGRVTLTSDKSTSTAYMELSSLRSEDTAVYYCARWDYDDGYFDYWGQGTTVTVSS
VL: DVVMTQSPLSLPVTLGQPASISCRSSQSLLHSNGNTYLHWYLQKPGQSPQLLIYKVSNRFSGVPDRFSGSGSGTDFTLKISRVEAEDVGVYFCSQITHIPFTFGQGTKLEIK
notes: Humanized 5E2; also called humanized BCMA antibody hu VH2-VL1
Regarding B4, the binding result in assay [4] and in assay [5] was “binds” each time.

B5: hu VH1-VL2 (antibody, V domains shown)
VH: QVQLVQSGAEVKKPGASVKMSCKASGYTFTSYVVHWVRQAPGQGLEWIGYIIPYNDDTKYNEKFKGKATLTSDKSSSTAYMELSSLRSEDTAVYYCARWDYDDGYFDYWGQGTTVTVSS
VL: DVVMTQTPLSLSVTPGQPASISCKSSQSLLHSNGNTYLHWYLQKPGQSPQLLIYKVSNRFSGVPDRFSGSGSGTDFTLKISRVEAEDVGVYFCSQITHIPFTFGQGTKLEIK
notes: Humanized 5E2; also called humanized BCMA antibody hu VH1-VL2
In the case of B5, the binding result in assay [4] and in assay [5] was “binds” in each case.

B6: R0317 (C11D5.3 BCMA mouse monoclonal antibody) (antibody, V domains shown)
VH: QIQLVQSGPELKKPGETVKISCKASGYTFTDYSINWVKRAPGKGLKWMGWINTETREPAYAYDFRGRFAFSLETSASTAYLQINNLKYEDTATYFCALDYSYAMDYWGQGTSVTVSS
VL: DIVLTQSPASLAMSLGKRATISCRASESVSVIGAHLIHWYQQKPGQPPKLLIYLASNLETGVPARFSGSGSGTDFTLTIDPVEEDDVAIYSCLQSRIFPRTFGGGTKLEIK
Regarding B6, the binding result in assay [1] and in assay [6] was “binds” throughout.

Source of the values: US20230039487A1 (SHENZHEN FEIPENG BIOLOGICAL THERAPY, published 2023).
